One block for each binder: values may come before it.
Columns and labels:
6E-WT peptide [1] = biological target: T1, 6E-WT peptide (Homo sapiens UBE2J1 (UBC6e; synthetic …, UniProt Q9Y385); assay: SPR; biotinylated Nb (1 uM) captured on a streptavidin (SA) chip to about 2000 RU; peptide as analyte, 50 ul/min, 60 s contact, 120 s dissociation; 1X PBS pH 7.4 plus 0.05% P20; Biacore T200; 1:1 kinetics binding model, local fittings; details: both partners purified
T1 construct: Leu at position 9; numbers count on: the peptide; the printed E5 and L9 fit this; also called 6E-L9 (WT); 6E peptide; source: synthetic peptide
T1 chain: QADQEAKELARQIS

6E-WT peptide [2] = biological target: T1, 6E-WT peptide; assay: flow cytometry on cells; competition: HEK293 cells stably expressing A2AR-Nb6E-ALFA with unlabeled variant 6E peptides (10–0.01 uM) and 10 nM FAM-6E-C14 for 30 m in 2% BSA in PBS; antifluorescein antibody-AF647; median fluorescence intensity; details: one partner purified
127-tag peptide = biological target: T2, 127-tag peptide (Homo sapiens CXCR2 (synthetic peptide)); assay: SPR; biotinylated Nb (1 uM) captured on a streptavidin (SA) chip to about 2000 RU; peptide as analyte, 50 ul/min, 60 s contact, 120 s dissociation; 1X PBS pH 7.4 plus 0.05% P20; Biacore T200; 1:1 kinetics binding model, local fittings; details: both partners purified
T2 construct: numbers count on: the peptide; the printed residues Ser1', Phe2', Glu3', Phe5', Trp6', Lys7', Asp10' fit this; source: synthetic peptide
T2 chain: SFEDFWKGED

- binding result (6E-WT peptide [1]): binds
B1: Nb6E-biotin (VHH)
VHH: QVQLQESGGGLVQPGGSLRLSCAASGFVFENSAMAWYRQAPGKERELIAVIGTTFIKLAESVKGRFTISRDNAKSTVYLQMNNLKPEDTAVYYCSKSGAYWGQGTQVTVSS
notes: as the chain of m13; Sortagging probably removes the His6 tag; also called biotinylated Nb6E; source: bacterial expression (pET26b, pelB), purified; labelled by sortagging (Sortase 5M), Ni-NTA and PD10

- binding result (6E-WT peptide [2]): binds
B2: A2AR-Nb6E-ALFA (VHH)
VHH: B1 VHH
notes: as the chain of m13 (Nb6E); also called cell surface protein fused with Nb6E; source: HEK293 cells, stably expressing, on cells

- Kd (127-tag peptide): 14 nM
B3: Nb127–biotin (VHH)
VHH: EVQLVESGGGLVQAGESLRLSCAASGSTFDFKVMGWYRQPPGKQREGVAAIRLSGNMHYAESVKGRFAISKANAKNTVYLQMNSLRPEDTAVYYCKVNIRGQDYWGQGTQVTVSS
notes: as the chain of m1; Sortagging probably removes the His6 tag; also called biotinylated Nb127; source: bacterial expression (pET26b, pelB), purified; labelled by sortagging (Sortase 5M), Ni-NTA and PD10

Reference: publication PMC12212259, “Evaluation of AlphaFold modeling for elucidation of nanobody–peptide epitope interactions” (The Journal of Biological Chemistry, 2025)
